According to patent US20140162947A1:
Values belong to the substance of their own block, whether it stands above or below them.

Assays:
Assay in all cases: cell-based or functional assay
CXCR4 (mouse) = CXCR4 (mouse) (UniProt P70658)
CXCR3 (mouse) = CXCR3 (mouse) (UniProt O88410)
CCR7 (mouse) = CCR7 (mouse) (UniProt P47774)
Chain of UniProt P47774 (P47774 25-378): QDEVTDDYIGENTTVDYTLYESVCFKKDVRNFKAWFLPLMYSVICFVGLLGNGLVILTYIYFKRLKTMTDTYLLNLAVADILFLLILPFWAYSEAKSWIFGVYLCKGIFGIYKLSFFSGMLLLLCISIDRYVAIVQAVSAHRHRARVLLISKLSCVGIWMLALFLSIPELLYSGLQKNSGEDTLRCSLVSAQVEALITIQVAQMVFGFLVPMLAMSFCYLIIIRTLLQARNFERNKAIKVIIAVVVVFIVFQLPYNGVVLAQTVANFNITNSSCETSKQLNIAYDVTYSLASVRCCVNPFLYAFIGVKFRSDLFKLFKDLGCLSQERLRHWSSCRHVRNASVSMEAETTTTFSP

Chain of UniProt P70658 (P70658 whole entry): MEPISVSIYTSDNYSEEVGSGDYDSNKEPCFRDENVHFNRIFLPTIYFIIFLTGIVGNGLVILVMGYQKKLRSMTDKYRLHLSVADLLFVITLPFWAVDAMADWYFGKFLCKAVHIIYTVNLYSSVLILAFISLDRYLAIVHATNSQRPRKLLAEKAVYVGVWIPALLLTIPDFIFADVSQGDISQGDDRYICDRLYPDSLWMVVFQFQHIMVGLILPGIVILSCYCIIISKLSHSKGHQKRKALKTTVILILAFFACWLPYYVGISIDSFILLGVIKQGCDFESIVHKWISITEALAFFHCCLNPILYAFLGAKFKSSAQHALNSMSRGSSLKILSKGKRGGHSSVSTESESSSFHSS
Chain of UniProt O88410 (O88410 whole entry): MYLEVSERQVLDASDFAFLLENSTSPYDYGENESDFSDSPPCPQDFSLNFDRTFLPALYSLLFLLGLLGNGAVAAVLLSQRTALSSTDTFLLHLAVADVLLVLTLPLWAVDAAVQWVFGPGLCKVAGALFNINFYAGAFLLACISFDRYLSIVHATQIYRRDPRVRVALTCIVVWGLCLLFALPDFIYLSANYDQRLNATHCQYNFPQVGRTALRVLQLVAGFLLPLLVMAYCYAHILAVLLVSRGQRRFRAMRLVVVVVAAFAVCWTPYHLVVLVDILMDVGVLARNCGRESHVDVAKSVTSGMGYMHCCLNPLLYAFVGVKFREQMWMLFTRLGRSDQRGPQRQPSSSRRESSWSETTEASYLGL

- migration of WT CMP-derived PACs in a transwell Boyden chamber, fold over BSA control (CXCR4 (mouse)): 23 fold
- migration of WT GMP-derived PACs in a transwell Boyden chamber, fold over BSA control (CXCR4 (mouse)): 19 fold
Substance: SDF-1α (ligand)

- migration of WT GMP- and CMP-derived PACs in a transwell Boyden chamber, fold over BSA control (CXCR3 (mouse)): 4 fold
Substance: CXCL10 (ligand)

- migration of WT GMP- and CMP-derived PACs in a transwell Boyden chamber, fold over BSA control (CCR7 (mouse)): 4 fold
Substance: CCL21 (ligand)
